Test results taken from paper PMC3537852.

Assays:
[1] = molecular target: myc-tagged full-length mAKAPβ with an internal deletion of residues 1257–1886; test: co-IP
[2] = molecular target: His-mAKAP 1286–1833; test: SPR

| percent reduction of RSK3 binding against full-length mAKAPβ [1] | fold decrease of binding affinity against unphosphorylated RSK3 [2] | Substance |
| --- | --- | --- |
| > 85% |  | HA-tagged RSK3 (type 3 p90 ribosomal S6 kinase) (from UniProt Q15349 1-733) (enzyme) |
|  | 8 fold | His-RSK3, full-length, ERK and PDK1-phosphorylated (from UniProt Q15349 1-733) (enzyme) |
|  | 5 fold | His-RSK3, full-length, ERK-phosphorylated (from UniProt Q15349 1-733) (enzyme) |
